The emibetuzumab library of Makowski et al. (2022)

B1: VH:VL chains; a variant is named by its letters at X, in order (parent)
chain 1: QVQLVQSGAEVKKPGASVKVSCKASGYTFTDYXMHWVRQAPGQGLEWMGXVNPNXXXTTYNQKFEGRVTMTTDTSTSTAYMELRSLRSDDTAVYYCARXNXLDXWGQGTTVTVSS
chain 2: DIQMTQSPSSLSASVGDRVTITCSVSSSVSSIYLHWYQQKPGKAPKLLIYSTSNLASGVPSRFSGSGSGTDFTLTISSLQPEDFATYYCQVYSGYPLTFGGGTKVEIK

Variants of: B1
Experiment: yeast display scFab, FACS + sequencing
Outline: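 Non-specific binding was called from deep sequencing of sorted yeast cells displaying a heavy-chain CDR mutant scFab library. Cells labelled with anti-Myc and biotinylated ovalbumin (260 μg/mL in PBSB, 3 h, room temperature) or soluble membrane proteins (130 μg/mL, 20 min on ice) were FACS-sorted, collecting the top 25% and bottom 10% of binders from two replicates. A sequence was positive when present in ≥3 of 4 pooled positive samples and absent from all negatives, and negative under the converse rule.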

Variant	non-specific binding call
DEGGTAGV	no binding
DEGGTAGA	no binding
YETGNVWF	no binding
VETGNSGA	no binding
YEGTGSWA	no binding
SEKEGDAA	no binding
VETGNAVY	no binding
DERRSSAF	no binding
DEGRSVAA	binds
YEKETAGV	binds
SEREADWF	no binding
SEGRGDGA	no binding
DEGGTAAA	no binding
YETETALY	no binding
SETGGAGD	no binding
FEKEGDAA	no binding
VEKGGDWD	no binding
YETTDSWV	no binding
VEKEGDVY	no binding
SEKKDYSA	no binding
VEKGGSGV	no binding
VEKGGSGD	no binding
AETKGALD	no binding
SETTDSLD	no binding
SEGRGDVY	no binding

Variant	non-specific binding call
VERGGFGS	binds
VETGNDLV	no binding
DEGGTSVD	no binding
VEGTSDLS	no binding
VEGTSSLD	no binding
SETTDSSA	no binding
FEKEADAF	binds
AETKGDVY	no binding
VETEGAVY	no binding
VETRSDVA	no binding
VEKTGVGA	binds
VETGNSSA	no binding
VEGGTAGS	no binding
DEGTDYAA	binds
SETTDDVA	no binding
YETGAAAA	no binding
DEGGTDWD	no binding
DEGGTDWY	no binding
DEGGTDWV	no binding
VEGTSSSV	no binding
YEGGTSGA	no binding
SEGGSAAY	no binding
YEGTGDVV	no binding
DEGGTALA	no binding
AETAGAAA	no binding

Variant	non-specific binding call
VETEGSGV	no binding
VEGTGDWD	no binding
SERRDVLY	binds
VETEGDGV	no binding
VETEGDGF	no binding
VEGKGAGD	no binding
VERGGDSY	no binding
VETRSSSV	no binding
YEKETVVA	binds
YEGTGSGD	no binding
AEGRGAVY	no binding
YEGTGAGA	no binding
DEGGTAVV	no binding
DEGGTAVA	no binding
YEKGGDVD	no binding
YEKGGDVY	no binding
DEGTGALA	no binding
VEKEGAGD	no binding
FERTSVWF chain 1 L45F	binds
SETKGDWD	no binding
SETKGDWA	no binding
VEGGGYSV	no binding
DEGRGSWA	no binding
VEKGGDAA	no binding
DEGGTDLD	no binding

Variant	non-specific binding call
SEGTGAGV	no binding
YEGGGYSF	no binding
FEGGTDVV	no binding
YERRDVLY	binds
DETGNVWF	no binding
SETKGDVY	no binding
SETGGDWV	no binding
DEGGTDSA	no binding
DEGGTDSF	no binding
VEREADWF	no binding
SEGRGAWY	no binding
YEGRGDVA	no binding
VEGTGAGD	no binding
AEGGTDVV	no binding
VEKEGDWY	no binding
YERRSSAF	no binding
SETGGFVV	no binding
DETGGSSD	no binding
VETEGDWY	no binding
VETEGDWD	no binding
VEGTSSGD	no binding
VETEGSSV	no binding
SEKKSAGA	no binding
AERRGSWS	no binding
VERKGYLA	binds

Variant	non-specific binding call
VEGTSAVY	no binding
VEGTSAVF	no binding
DEGKDDVA	no binding
VEKGGDGV	no binding
DETKGDWD	no binding
AETKGAVA	no binding
DEGGTDGY	no binding
DEGGTDGS	no binding
DEGGTDGV	no binding
YEGGTDGA	no binding
VETGNDAV	no binding
YEGGTDVV	no binding
SEGGTDVV	no binding
SEKGGSSA	no binding
AEGTSAVF	no binding
VETGGAVA	no binding
SETGNVWF	no binding
YEKGGAGD	no binding
DETEGDVF	no binding
AETGASLS	no binding
AETKGSLA	no binding
DEGTGAVA	no binding
SEGRGAAA	no binding
FEKGSDVA	no binding
AETKGAAA	no binding

Variant	non-specific binding call
YEGRNVGV	binds
AERRDDGA	no binding
DEKGGSSA	no binding
AETKGDGV	no binding
AETKGDGA	no binding
VETGNSLV	no binding
SEGTSAVF	no binding
VETGGAAA	no binding
SEKKADWA	no binding
VETGNDGA	no binding
VETGNDGV	no binding
SEGRGDAA	no binding
YEKEDYLA chain 1 G108D	no binding
AETKGDWD	no binding
AETKGDWV	no binding
SETGGDVA	no binding
SEGRGSGV	no binding
VEKEGDAD	no binding
DEGGTSGV	no binding
YERRGSWS	no binding
FERRAFGY	binds
DEGGTSLD	no binding
SEGTGSSV	no binding
VERRGSWS	no binding
DETRSAGA	no binding

Variant	non-specific binding call
VEGRGAVY	no binding
VERGTYGV	no binding
VEGTNDVV	no binding
VETKGDWD	no binding
VEGGTDVA	no binding
VEGGTDVV	no binding
VETTDSWV	no binding
YEKGGAWS	binds
YETKGDWD	no binding
VEGGNDGA	no binding
VEKEGDGV	no binding
VEKEGDGA	no binding
VEKEGDGS	no binding
YETEGDVF	no binding
YERTTDLS	binds
VEGTSASV	no binding
VETEGDVA	no binding
VETEGDVY	no binding
DEGGTSSA	no binding
YEKGGDGV	no binding
YEKGGDGA	no binding
YEGTGAVF	no binding
DEGKGFGS	binds
SERRSSAF	no binding
SETGADVA	no binding

Variant	non-specific binding call
SETTDDAV	no binding
VEGRGDAV	no binding
VEKGGDVS	no binding
SETGAALD	no binding
YERESAAV	no binding
AETKGFAV	no binding
VEGTSDVV	no binding
VEGTSDGD	no binding
SEGTGSGD	no binding
DEGGTDVF	no binding
DEGGTDVY	no binding
DEGGTDVA	no binding
DEGGTDVD	no binding
DEKKADWA	no binding
SEGTGDWV	no binding
DEKEGDAA	no binding
YEGTGSLS	no binding
VEGRGDGA	no binding
VEGRGDGY	no binding
FETGGYVY	no binding
VEKKDYSA	no binding
VERASAVV	no binding
AEREADWV	no binding
DEGGTDAV	no binding
DEGGTDAA	no binding

Variant	non-specific binding call
YERRNDVV	no binding
DEGGTSAD	no binding
DETGGDWF	no binding
VEGRGDVF	no binding
VEGTGVGD	binds
SETTDAGD	no binding
SETTDAGV	no binding
VEGTSAGD	no binding
FERTSALF	binds
DEGKAAGS	no binding
AEGTNAGD	no binding
VETEGAGA	no binding
DEGRGDGV	no binding
VEGTSAAY	no binding
DEGRGDWY	no binding
VETEGDAV	no binding
YEGTGSAD	no binding
VETGNDVA	no binding
